Key:
PBT = assay: Extent of apoptosis and necrosis (annexin-V, PI, DAPI staining); format: cell-based, human
Procedure: Apoptosis was determined by monitoring fragmentation of nuclear DNA and access of annexin V to c ell surface phosphatidylserine (PS). To detect fragmentation of nuclear DNA, T cells were cultured in the presence and absence of the respective galectins, with or without blocking antibodies or further activation for 48 h. Thereafter, cells were fixed in 0.2 ml of 37% formaldehyde for 10 min at room temperature. The cells were then treated with 1 ml PBS containing 0.2% Nonidet P-40 (Sigma-Aldrich) for 2 min at room temperature and then rinsed once in PBS. The apoptotic cells were detected by staining of nuclear DNA with 4,6-diamino-2-phenylindole (DAPI) (Calbiochem). DAPI was added at a concentration of 0.2 ng/ml of PBS and cells were incubated at room temperature for 20 min in this solution. Cells were rinsed twice in PBS and the coverslips were maintained cell side down on a microscope slide and analyzed using a Zeiss Axiovert 135M microscope (Carl Zeiss, Oberkochen, Germany). To detect early phases of apoptosis, access to PS was measured. Cells were cultured as described, harvested at the respective time points, stained with FITC-labeled annexin-V and PI and analyzed by flow cytometry using the CellQuest software program (BD Pharmingen). A minimum of 15,000 cells was monitored in each case.

CD3, CD7, β1 integrin = assay: Magnetic separation / co-immunoprecipitation of galectin containing complexes; format: binding, human; conditions: galectin coated beads, immunoblot for CD3, CD7, β1
Procedure: For immunoblotting cells were washed in PBS, and lysed in cell lysis buffer (1% Triton-X, 0.5% NP-40, 0.1% SDS, 0.5% sodium deoxycholate, 5 mM EDTA, 50 mM and 50 mM protease- and phosphatase-inhibitor cocktail 2, 1 mM PMSF, 100 μg/ml trypsin-chymotrypsin inhibitor, 100 μg/ml chymostatin in PBS). The concentration of proteins in each lysate was measured using the Bio-Rad protein assay (Bio-Rad Laboratories, Hercules, Calif.). Equivalent amounts of protein (10 μg) were fractionated on a 10-20% Tris-glycine gel and electrotransferred to a nitrocellulose membrane (Novex, San Diego, Calif.). Membranes were blocked with 5% milk in 0.1% Tween 20-PBS (Fisher Scientific, Hanover Park, Ill.), followed by incubation for 60 m in at room temperature with the indicated primary antibody. The membranes were washed six times with 0.1% Tween 20-PBS and then incubated for 1 h with the appropriate horseradish peroxidase-conjugated secondary antibody (Santa Cruz Biotechnology), washed, and incubated with the chemiluminescent substrate (Perkin-Elmer, Carlsbad, Calif.) for 5 minutes. The membranes were then exposed to film (Amersham, Arlington Heights, Ill.). […]

T cells (PBT, LPT) = assay: Integrin accessibility on T cell surface (flow cytometry); format: cell-based, human
Procedure: For surface staining, cells were washed twice in ice-cold PBS and 1×10^6 cells were resuspended in flow buffer (HBSS containing 1% BSA and 0.1% sodium azide). Cells were incubated with the respective mAb at predetermined saturating concentrations or with isotype-matched nonspecific mouse mAb (DAKO) for 30 min at 4° C., washed twice with flow buffer, and incubated with FITC-conjugated goat anti-mouse IgG for 30 min at 4° C. The cells were again washed twice with flow buffer, fixed in 1% paraformaldehyde and analyzed by a single laser flow cytometer (FacsCalibur, […]), using Cell Quest software (BD Pharmingen). Cells stained with a negative control Ab were gated to contain <2% positive cells. To perform analysis of intracellular proteins, cells were washed twice with PBS, adjusted to 1×10^6 cells per sample, and fixed in 90% methanol at −20° C. After fixation, cells were washed twice with PBS and incubated with a monoclonal mouse anti-bax, Bcl-2, Rb, Cyclin A, p21, p27, or p53 antibody for 45 minutes at 4° C., followed by an incubation with a goat anti-mouse FITC-conjugated mAb (Biosource) for 45 minutes at 4° C. Thereafter cells were washed and analyzed by flow cytometry as described above. The background level of immunofluorescence was determined by incubating cells with FITC-conjugated mouse IgG (isotype control).

B1: galectin-2: β-galactoside binding lectin, non-covalent dimer with subunits of about 14 kDa; recombinant human or rat (SEQ ID NO:1, 2) (protein)
chain: MAGELEVKNMDMKPGSTLKITGSIADGTDGFVINLGQGTDKLNLHFNPRFSESTIVCNSLDGSNWGQEQREDHLCFSPGSEVKFTVTFESDKFKVKLPDGHELTFPNRLGHSHLSYLSVRGGFNMSSFKLKE
- time to induction of apoptosis (PBT): 6 to 12 h
- time course of annexin-V staining (PBT; 50 μg/ml, anti-CD3): gradual increase over 72 h
- nuclear fragmentation (DAPI staining) (PBT; 25 and 50 μg, data not shown): induce nuclear fragmentation
- T cell apoptosis (annexin-V) (PBT; PBT activated by anti-CD3 mAbs): induced a dose-dependent apoptosis
- T cell necrosis (PI) (PBT; PBT activated by anti-CD3 mAbs): albeit to a much lesser extent, necrosis
- apoptosis of T cells from patients with RA or CD (PBT; anti-CD3, 48 hours, 0, 10, 25, 50 μg/ml): induces apoptosis
- percentage of T cell apoptosis relative to galectin-1 (PBT; anti-CD3 activated PBT): higher than that induced by galectin-1
- apoptosis in CD4 and CD8 positive T cell populations (PBT; data not shown): comparable in CD4 and CD8 positive T cell populations
- T cell apoptosis (annexin-V) (PBT; without cell stimulation, 0, 10, 25, 50, 100 μg/ml): failed to induce T cells apoptosis
- glycoproteins co-immunoprecipitated (CD3, CD7, β1 integrin): coimmunoprecipitate only with integrin β1
- β4 integrin accessibility (T cells (PBT, LPT); CD3 activated PBT): neither galectin-1 nor galectin-2 changed
- integrin α5 accessibility (T cells (PBT, LPT); CD3 activated PBT, 50 μg/ml): downregulated
- integrin β1 accessibility (T cells (PBT, LPT); CD3 activated PBT, 50 μg/ml): downregulated
- integrin a5 accessibility (T cells (PBT, LPT); CD3 activated PBT, second statement): slightly upregulated
- integrin β1 accessibility (T cells (PBT, LPT); intestinal T cells (LPT)): failed to modulate
